In article PMC9817130 (2023) one finds koff and Kd data, which are given here for 4 molecules.

For experiment [1], the target named is T1, SARS-CoV-2 WT RBD protein (Sino Biological) (SARS-CoV-2, UniProt P0DTC2 319-541). Put plainly: SPR. (In general: Surface plasmon resonance follows binding to a sensor surface in real time, without labels.)
The target of experiment [2] is T1, SARS-CoV-2 WT RBD protein (Sino …). Put plainly: SPR. The source holds these as a separate data set.

B1: P1D9 monoclonal antibody (IgG) (antibody, V domains shown)
VH: EVQLVQSGAEVKKPGSSVRVSCKASGGTFGDDSITWVRQAPGQGLEWMGGIFPLIGKTHYAQRFQGRLTVTADKSTSTAYMELSGLRSEDTAIYYCARDWGTTLTAFDIWGQGTMVTVSS
VL: DIQMTQSPSSLSASVGDTVTITCRAGQTINTFLNWYQQKPGKAPKLLIYAASTLQSGVPSRFSGSGSGTDFTLTINSLQPEDFATYYCQQSYSNLYTFSQGTKVEIK
B1 displayed a koff in experiment [1] of 7.68e-05 s⁻¹. Besides, the dissociation constant Kd in experiment [2] worked out at 0.188 nM.

B2: P2B4 monoclonal antibody (IgG) (antibody, V domains shown)
VH: EVQLVESGGGLVQPGRSLRLSCAASGFNFDDYAMHWARQVPGKGLEWVSGISGNSGSVEYADSVKGRFAMSRDNAKNSLYLEMNSLRTEDTALYYCAKETTPWGIYRSGGLDVWGQGTTVTVSS
VL: DIQMTQSPSSLSASVGDRVTITCRASQSIHSFLSWYQQKPGKAPKLLINSASTLQSGVPPWFSGSGSGTDFTLTISSLQPEDFATYYCQQSYIAPWTFGQGTKVEIK
For B2, the koff in experiment [1] stood at 1.37e-05 s⁻¹. Also, the dissociation constant (Kd) in experiment [2] turned out to be 0.143 nM.

B3: P3E6 monoclonal antibody (IgG) (antibody, V domains shown)
VH: EVQLLDSGGGLVQPGGSLRLSCAVSGFTFSNYAMNWVRQTPGKELEWVSAISGTGDDTHYADSVRGRFTISSDNSKNTVYLQMNSLRVEDTAIYYCAKAISRYPWGCLDYWGQGTLVTVSS
VL: not shown
For the molecule B3, in experiment [1], the koff turned out to be 0.00014 s⁻¹. This molecule yielded a dissociation constant (Kd) in experiment [2] of 0.558 nM.

B4: P2D9 monoclonal antibody (IgG) (antibody, V domains shown)
VH: EVQLVESGAEVKKPGSSVKVSCKASGDTFYTFDISWVRQAPGQGLEWMGGISPVFDAPNYAQKFQDRVTITADKSTSTAYMELSSLRSEDTAIYYCVKPTYSNYVWGIGAFDVWGQGTTVTVSS
VL: EIVLTQSPGTLSLSPGERATLSCRASQSVGNIYLAWYQQKPGQAPRLLIYGASTRATGIPDRFSGSGSGTDFTLTISRLEPEDFAVYYCQQYGDSLWTFGQGTKVEIK
B4 showed a koff in experiment [1] of 4.34e-05 s⁻¹. This molecule registered a Kd in experiment [2] of 0.202 nM.

By koff is commonly meant a measure of how fast the partners let go of each other. Lower therefore signals a long-lived complex. As usually defined, the Kd is a measure of binding affinity in units of concentration.
